Consider four molecules from patent EP1987837A1 (Technische Universität Dresden Medizinische Fakultät Carl …, dated 2008).

The target of series [1] is endogenous β2-syntrophin (rat) (UniProt P01322). Nature of the series: cell-based or functional assay.
The next series deals with T1, 35S-ICA512601-979 (Homo sapiens (Human), UniProt Q16849 601-979, 35S-methionine labelled).
T1 construct: also called cytoplasmic portion of ICA512
T1 sequence: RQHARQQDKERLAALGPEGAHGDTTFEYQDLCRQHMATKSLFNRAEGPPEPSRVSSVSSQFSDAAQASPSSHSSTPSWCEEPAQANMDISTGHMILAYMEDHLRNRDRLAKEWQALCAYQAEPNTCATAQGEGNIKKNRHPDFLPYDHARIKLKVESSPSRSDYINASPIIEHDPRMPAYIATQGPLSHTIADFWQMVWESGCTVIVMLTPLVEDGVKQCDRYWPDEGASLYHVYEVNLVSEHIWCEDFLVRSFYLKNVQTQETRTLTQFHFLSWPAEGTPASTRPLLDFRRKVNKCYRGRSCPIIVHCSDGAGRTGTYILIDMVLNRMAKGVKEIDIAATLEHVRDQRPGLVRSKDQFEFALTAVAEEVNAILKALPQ
Nature of the series: GST pull-down, SDS-PAGE and autoradiography.

The target in the next series is T2, 35S-ICA512700-979 (Homo sapiens (Human), UniProt Q16849 700-979, 35S-methionine labelled).
T2 construct: In vitro transcribed and translated from pET28a; also called PTP portion of ICA512
T2 sequence: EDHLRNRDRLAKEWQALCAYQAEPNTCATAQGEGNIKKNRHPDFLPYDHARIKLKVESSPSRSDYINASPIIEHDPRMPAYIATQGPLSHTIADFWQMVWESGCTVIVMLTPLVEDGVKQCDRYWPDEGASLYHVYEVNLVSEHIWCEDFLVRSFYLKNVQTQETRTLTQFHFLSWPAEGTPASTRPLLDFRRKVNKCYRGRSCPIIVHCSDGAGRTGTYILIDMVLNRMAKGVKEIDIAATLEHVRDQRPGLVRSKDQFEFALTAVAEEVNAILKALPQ
Description: GST pull-down, SDS-PAGE and autoradiography.

Series [2] deals with the molecule itself. Description: co-immunoprecipitation from INS-1E cells.
A further series deals with T3, 35S-Luciferase (firefly, UniProt P08659 1-550 = luciferase, 35S-methionine labelled).
T3 construct: Control protein in the pull-down assays; also called firefly luciferase; control protein
T3 sequence (P08659 whole entry): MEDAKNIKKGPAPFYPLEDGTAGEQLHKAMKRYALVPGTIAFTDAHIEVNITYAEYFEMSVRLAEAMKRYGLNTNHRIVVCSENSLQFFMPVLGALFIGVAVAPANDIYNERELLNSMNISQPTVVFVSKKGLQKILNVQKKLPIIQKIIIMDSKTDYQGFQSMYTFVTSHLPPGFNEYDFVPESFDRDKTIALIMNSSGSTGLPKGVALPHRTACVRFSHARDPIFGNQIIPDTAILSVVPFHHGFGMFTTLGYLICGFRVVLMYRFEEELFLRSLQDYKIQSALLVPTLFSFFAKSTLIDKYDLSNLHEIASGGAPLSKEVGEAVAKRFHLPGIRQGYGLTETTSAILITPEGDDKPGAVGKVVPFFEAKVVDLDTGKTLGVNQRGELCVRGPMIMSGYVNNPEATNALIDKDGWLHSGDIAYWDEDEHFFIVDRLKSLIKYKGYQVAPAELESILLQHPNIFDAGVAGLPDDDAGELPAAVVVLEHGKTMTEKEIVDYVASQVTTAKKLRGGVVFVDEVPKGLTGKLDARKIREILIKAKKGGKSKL
Nature of the series: GST pull-down, SDS-PAGE and autoradiography.

The molecule “ICA512-TMF (from UniProt Q63259 41-983) (receptor)” came in with an insulin stimulation index after knockdown of β2-syntrophin, compared to control cells in series [1] of 34%.

B1: GST-ICA512800-979 (other)
chain: ESGCTVIVMLTPLVEDGVKQCDRYWPDEGASLYHVYEVNLVSEHIWCEDFLVRSFYLKNVQTQETRTLTQFHFLSWPAEGTPASTRPLLDFRRKVNKCYRGRSCPIIVHCSDGAGRTGTYILIDMVLNRMAKGVKEIDIAATLEHVRDQRPGLVRSKDQFEFALTAVAEEVNAILKALPQ
notes: Bacterially expressed, on glutathione sepharose beads; not shown: glutathione S-transferase (GST) fusion partner
Regarding B1, the binding result with 35S-ICA512601-979 and in the series with 35S-ICA512700-979 was “no binding” in each case.

B2: pro-ICA512 (receptor, rat, UniProt Q63259 41-983, looked up)
chain: ISAHGCLFDRRLCSHLEVCIQDGLFGQCQAGVGQARPLLQVTSPVLQRLQGVLRQLMSQGLSWHDDLTQYVISQEMERIPRLRPPEPHPRDRSGSVPRRAGPAGELLSQGNPTGSSPAVQGLSRPPGDGNGAGVGSPLSSLQAELLPPLLEHLLMPPQPPHPSLTYEPALLQPYLFQQFGSRDGSRGSESASGVVGHLAKAEDPVLFSRSLSKAILGTHSGHSFGDLTGPSPAQLFQDSGLLYMAQELPVPGRARAPRLPEEGGSSRAEDSSEGHEEEVLGGHGEKSPPQAVQADVSLQRLAAVLAGYGVELRQLTPEQLSTLLTLLQLLPKGTGRHLGGAVNGGADVKKTIEEQMQRGDTADARPPTPLLPGHPTASSTSIKVRQVLSPGFPEPPKTSSPLGISAVLLEKKSPLGQSQPTVVGQPSARPSAEEYGYIVTDQKPLSLVAGVKLLEILAEHVHMTSGSFINISVVGPAVTFRIRHNEQNLSLADVTQQAGLVKSELEAQTGLQILQTGVGQREESAAVLPRQAHGISPMRSLLLTLVALAGVAGLLVALAVALCMRHHSKQRDKERLAALGPEGAHGDTTFEYQDLCRQHMATKSLFNRAEGQPEPSRVSSVSSQFSDAAQASPSSHSSTPSWCEEPAQANMDISTGHMILAYMEDHLRNRDRLAKEWQALCAYQAEPNTCATAQGEGNIKKNRHPDFLPYDHARIKLKVESSPSRSDYINASPIIEHDPRMPAYIATQGPLSHTIADFWQMVWESGCTVIVMLTPLVEDGVKQCDRYWPDEGSSLYHVYEVNLVSEHIWCEDFLVRSFYLKNVQTQETRTLTQFHFLSWPAEGTPASTRPLLDFRRKVNKCYRGRSCPIIVHCSDGAGRTGTYILIDMVLNRMAKGVKEIDIAATLEHVRDQRPGLVRSKDQFEFALTAVAEEVNAILKALPQ
notes: In cells expressing ICA512-GFP, one partner may be the GFP-tagged form; also called pro-form of ICA512, glycoprotein of 110 kDa
With B2, the binding result in series [2] is “no binding”.

B3: GST-ICA512601-979 (other)
chain: T1 sequence
notes: Bacterially expressed, coupled to glutathione sepharose beads (1 µg); The construct is only cited (Ort et al., 2000); not shown: glutathione S-transferase (GST) fusion partner
B3: in the series with 35S-Luciferase, the binding result was “no binding”.
